Measurements taken from US20160194394A1 (GOVERNING COUNCIL OF THE UNIVERSITY OF TORONTO, published 2016).

Tests used:
Fc control protein [1] = biological target: T1, Fc control protein; experiment: ELISA, 1ug/ml (20nM) Fab [cont'd]
T1 construct: also called Fc protein; control Fc protein
In short: (§1)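 Plates coated with 2 ug/ml FZD7-Fc or Fc protein were probed with bacterially expressed purified Fabs for 1 h at room temperature in 0.5% BSA/0.05% Tween20/PBS. Bound Fab detected with anti-FLAG-HRP for 45 min, developed with TMB and acid stop, and read as absorbance at 450 nm; n.t. = not tested.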

[2] = biological target: T2, recombinant Frizzled receptor 7 (FZD7) cysteine-rich domain (CRD) fused to the Fc region of human IgG (human, UniProt O75084 33-185); experiment: ELISA, 1ug/ml (20nM) Fab [cont'd]
In short: as §1

[3] = biological target: T3, FZD7 receptor expressed on cells (full-length) (UniProt O75084 33-574, limits assumed); experiment: flow cytometry, 200 nM Fab, FZD7 over-expression line (MDA MB 231) [cont'd]
T3 construct: whole, on cells; MDA MB 231 cells may carry other Frizzled receptors too; also called full-length FZD7 receptor; endogenous receptor on MDA MB 231 cells
In short: (§2)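 EDTA-harvested MDA MB 231 cells, either FZD7-overexpressing or with endogenous receptor, were blocked in 2% FBS/PBS and stained with Fab for 30 min on ice. Detection used anti-F(ab′)₂-APC (1:1000, 15 min on ice), then 1% paraformaldehyde fixation and flow cytometry. Values are percent of cells in positive gates.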

[4] = biological target: T3, FZD7 receptor expressed on cells …; experiment: flow cytometry, 200 nM Fab, MDA MB 231 [cont'd]
In short: as §2

Fc control protein [5] = biological target: T1, Fc control protein; experiment: ELISA, 10ug/ml (200nM) Fab [cont'd]
In short: as §1

[6] = biological target: T2, recombinant Frizzled receptor 7 (FZD7) …; experiment: ELISA, 10ug/ml (200nM) Fab [cont'd]
In short: as §1

Row | Binder | OD 450 (Fc control protein [1]) | OD 450 [2] | % population within the positive gate [3] | % population within the positive gate [4] | OD 450 (Fc control protein [5]) | OD 450 [6]
1 | B10 (Fab, selection round 3; also called Fzd7-R3-B10) light: DIQMTQSPSSLSASVGDRVTITCRASQSVSSAVAWYQQKPGKAPKLLIYSASSLYSGVPSRFSGSRSGTDFTLTISSLQPEDFATYYCQQYWASLITFGQGTKVEIKRTVAAPSVFIFPPSDSQLKSGTASVVCLLNNFYPREAKVQWKVDNALQSGNSQESVTEQDSKDSTYSLSSTLTLSKADYEKHKVYACEVTHQGLSSPVTKSFNRGECGGS heavy: EVQLVESGGGLVQPGGSLRLSCAASGFNISYYYIHWVRQAPGKGLEWVAYISPYYGSTYYADSVKGRFTISADTSKNTAYLQMNSLRAEDTAVYYCARSWSYSYYYSHPGWSPVWAMDYWGQGTLVTVSSASTKGPSVFPLAPSSKSTSGGTAALGCLVKDYFPEPVTVSWNSGALTSGVHTFPAVLQSSGLYSLSSVVTVPSSSLGTQTYICNVNHKPSNTKVDKKVEPKSC | 0.06 | 3.22 | 93.7% | 98.2% | 0.06 | 3.24
2 | B2 (Fab, selection round 3; also called Fzd7-R3-B2) light: DIQMTQSPSSLSASVGDRVTITCRASQSVSSAVAWYQQKPGKAPKLLIYSASSLYSGVPSRFSGSRSGTDFTLTISSLQPEDFATYYCQQSSYSLITFGQGTKVEIKRTVAAPSVFIFPPSDSQLKSGTASVVCLLNNFYPREAKVQWKVDNALQSGNSQESVTEQDSKDSTYSLSSTLTLSKADYEKHKVYACEVTHQGLSSPVTKSFNRGECGGS heavy: EVQLVESGGGLVQPGGSLRLSCAASGFNLSYSYMHWVRQAPGKGLEWVASIYSSYGYTSYADSVKGRFTISADTSKNTAYLQMNSLRAEDTAVYYCARYYGWAYYYSYFPAWAGGGIDYWGQGTLVTVSSASTKGPSVFPLAPSSKSTSGGTAALGCLVKDYFPEPVTVSWNSGALTSGVHTFPAVLQSSGLYSLSSVVTVPSSSLGTQTYICNVNHKPSNTKVDKKVEPKSC | 0.06 | 2.92 | 86.2% | 15.9% | 0.1 | 3.18
3 | G7 (Fab, selection round 3; also called Fzd7-R3-G7) light: DIQMTQSPSSLSASVGDRVTITCRASQSVSSAVAWYQQKPGKAPKLLIYSASSLYSGVPSRFSGSRSGTDFTLTISSLQPEDFATYYCQQYGYWWVSLFTFGQGTKVEIKRTVAAPSVFIFPPSDSQLKSGTASVVCLLNNFYPREAKVQWKVDNALQSGNSQESVTEQDSKDSTYSLSSTLTLSKADYEKHKVYACEVTHQGLSSPVTKSFNRGECGGS heavy: EVQLVESGGGLVQPGGSLRLSCAASGFNLYYYSIHWVRQAPGKGLEWVASIYSYSSYTYYADSVKGRFTISADTSKNTAYLQMNSLRAEDTAVYYCARWWPGHYSGYGSGALDYWGQGTLVTVSSASTKGPSVFPLAPSSKSTSGGTAALGCLVKDYFPEPVTVSWNSGALTSGVHTFPAVLQSSGLYSLSSVVTVPSSSLGTQTYICNVNHKPSNTKVDKKVEPKSC | 0.06 | 1.9 | 84.2% | 15.3% | 0.13 | 2.98

The remaining lines, values ahead:

Row | OD 450 (Fc control protein [1]) | OD 450 [2] | % population within the positive gate [3] | % population within the positive gate [4] | OD 450 (Fc control protein [5]) | OD 450 [6] | Binder
4 | 0.06 | 3.12 | 84.7% | 6.1% | 0.16 | 3.21 | G9 (Fab, selection round 3; also called Fzd7-R3-G9) light: DIQMTQSPSSLSASVGDRVTITCRASQSVSSAVAWYQQKPGKAPKLLIYSASSLYSGVPSRFSGSRSGTDFTLTISSLQPEDFATYYCQQYYYSSPITFGQGTKVEIKRTVAAPSVFIFPPSDSQLKSGTASVVCLLNNFYPREAKVQWKVDNALQSGNSQESVTEQDSKDSTYSLSSTLTLSKADYEKHKVYACEVTHQGLSSPVTKSFNRGECGGS heavy: EVQLVESGGGLVQPGGSLRLSCAASGFNISYYYIHWVRQAPGKGLEWVAYISPSSGYTSYADSVKGRFTISADTSKNTAYLQMNSLRAEDTAVYYCARGYPVYSWVWSFGAFDYWGQGTLVTVSSASTKGPSVFPLAPSSKSTSGGTAALGCLVKDYFPEPVTVSWNSGALTSGVHTFPAVLQSSGLYSLSSVVTVPSSSLGTQTYICNVNHKPSNTKVDKKVEPKSC
5 | 0.06 | 3.05 | 80.9% | 0.7% | 0.09 | 3.12 | D9 (Fab, selection round 3; also called Fzd7-R3-D9) light: DIQMTQSPSSLSASVGDRVTITCRASQSVSSAVAWYQQKPGKAPKLLIYSASSLYSGVPSRFSGSRSGTDFTLTISSLQPEDFATYYCQQSSYSLITFGQGTKVEIKRTVAAPSVFIFPPSDSQLKSGTASVVCLLNNFYPREAKVQWKVDNALQSGNSQESVTEQDSKDSTYSLSSTLTLSKADYEKHKVYACEVTHQGLSSPVTKSFNRGECGGS heavy: EVQLVESGGGLVQPGGSLRLSCAASGFNLSYSSMHWVRQAPGKGLEWVASIYSSYSSTSYADSVKGRFTISADTSKNTAYLQMNSLRAEDTAVYYCARGAGYYWWHYYYVHGAMDYWGQGTLVTVSSASTKGPSVFPLAPSSKSTSGGTAALGCLVKDYFPEPVTVSWNSGALTSGVHTFPAVLQSSGLYSLSSVVTVPSSSLGTQTYICNVNHKPSNTKVDKKVEPKSC
6 | 0.05 | 3.22 | 91.5% | 46.7% | 0.06 | 3.26 | B9 (Fab, selection round 3; also called Fzd7-R3-B9) light: DIQMTQSPSSLSASVGDRVTITCRASQSVSSAVAWYQQKPGKAPKLLIYSASSLYSGVPSRFSGSRSGTDFTLTISSLQPEDFATYYCQQWWASGVGPFTFGQGTKVEIKRTVAAPSVFIFPPSDSQLKSGTASVVCLLNNFYPREAKVQWKVDNALQSGNSQESVTEQDSKDSTYSLSSTLTLSKADYEKHKVYACEVTHQGLSSPVTKSFNRGECGGS heavy: EVQLVESGGGLVQPGGSLRLSCAASGFNLYSSSIHWVRQAPGKGLEWVAYISSYYSSTYYADSVKGRFTISADTSKNTAYLQMNSLRAEDTAVYYCARPAMDYWGQGTLVTVSSASTKGPSVFPLAPSSKSTSGGTAALGCLVKDYFPEPVTVSWNSGALTSGVHTFPAVLQSSGLYSLSSVVTVPSSSLGTQTYICNVNHKPSNTKVDKKVEPKSC
